The supplement of paper PMC9732359
± gives the uncertainty stated by the source.

Test: protein stability index of a GFP-peptide fusion (yeast GPS) (PSI 1-4); higher = more stable; sorted into four equal gates, so the index is relative within each strain
In short: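 Plasmids isolated from each sorting gate were PCR-amplified and Illumina-sequenced, and barcodes assigned the reads to strains. The gates, four of equal size, were set by GFP/Cherry fluorescence ratio on mid-log cultures in leucine-free medium. These cultures were yeast carrying a pooled library of tiled 17-residue yeast protein peptides fused downstream of GFP on a plasmid that also expresses Cherry. The protein stability index is the sum of every gate's read frequency times its gate number.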

TNLQRNVDRLYKLNVRS [NUT2]
protein stability index (doa10∆): 3.66 ± 0.19
protein stability index (pdr5∆): 3.62 ± 0.2
protein stability index (san1∆): 3.01 ± 0.18
protein stability index (ubr1∆): 3.49 ± 0.073

TNQDGLKFVKVRVRTTK [RPB2]
protein stability index (doa10∆): 2.42 ± 0.084
protein stability index (pdr5∆): 3.05 ± 0.12
protein stability index (san1∆): 3.3 ± 0.1
protein stability index (ubr1∆): 3.2 ± 0.088

TNQKDTNDHVDKRTKID [ISW2]
protein stability index (doa10∆): 2.77 ± 0.069
protein stability index (pdr5∆): 3.05 ± 0.07
protein stability index (san1∆): 2.81 ± 0.059
protein stability index (ubr1∆): 2.72 ± 0.044

TNTFGSNSAGTSLFGSS [YJL041W/NSP1]
protein stability index (doa10∆): 3.1 ± 0.083
protein stability index (pdr5∆): 2.84 ± 0.09
protein stability index (san1∆): 3.16 ± 0.082
protein stability index (ubr1∆): 3.15 ± 0.058

TNVNVKIKDVQQQIESN [SMC3]
protein stability index (doa10∆): 3.19 ± 0.088
protein stability index (pdr5∆): 3.17 ± 0.081
protein stability index (san1∆): 3.18 ± 0.074
protein stability index (ubr1∆): 2.79 ± 0.1

TNVYSKDLVIVSNLMGR [RPB3]
protein stability index (doa10∆): 3.04 ± 0.073
protein stability index (pdr5∆): 2.97 ± 0.059
protein stability index (san1∆): 2.96 ± 0.051
protein stability index (ubr1∆): 2.79 ± 0.04

TPANNGENAAEKPDNSN [SNF2]
protein stability index (doa10∆): 1.89 ± 0.075
protein stability index (pdr5∆): 2.24 ± 0.098
protein stability index (san1∆): 1.81 ± 0.1
protein stability index (ubr1∆): 2.71 ± 0.068

TPAPKISYKKGAASNRT [RPL36A]
protein stability index (doa10∆): 2.98 ± 0.072
protein stability index (pdr5∆): 3.22 ± 0.06
protein stability index (san1∆): 3.17 ± 0.058
protein stability index (ubr1∆): 3.1 ± 0.042

TPDATKIKAILESVGIE [RPP2A]
protein stability index (doa10∆): 2.31 ± 0.084
protein stability index (pdr5∆): 3.2 ± 0.16
protein stability index (san1∆): 3.08 ± 0.12
protein stability index (ubr1∆): 3.18 ± 0.063

TPGELVTDDPIWMRGHG [RRP4]
protein stability index (doa10∆): 2.65 ± 0.19
protein stability index (pdr5∆): 2.9 ± 0.13
protein stability index (ubr1∆): 3.14 ± 0.15

TPGEVASKAIVQMAKIL [MCD1]
protein stability index (doa10∆): 3.26 ± 0.14
protein stability index (pdr5∆): 3 ± 0.11

TPKGNESEQELSLHTGF [MTR3]
protein stability index (doa10∆): 3.22 ± 0.11
protein stability index (pdr5∆): 3.13 ± 0.1
protein stability index (san1∆): 3.18 ± 0.12
protein stability index (ubr1∆): 3.17 ± 0.061

TPKLQTQLSYLISSSLS [YCS4]
protein stability index (doa10∆): 1.95 ± 0.047
protein stability index (pdr5∆): 2.14 ± 0.052
protein stability index (san1∆): 2 ± 0.08
protein stability index (ubr1∆): 2.09 ± 0.046

TPLLENISISTSELGND [BRR2]
protein stability index (doa10∆): 2.16 ± 0.058
protein stability index (pdr5∆): 2.05 ± 0.049
protein stability index (san1∆): 2.2 ± 0.07
protein stability index (ubr1∆): 2.03 ± 0.042

TPNFDDVLKENNDADKG [RIP1]
protein stability index (doa10∆): 1.51 ± 0.093
protein stability index (pdr5∆): 1.35 ± 0.12
protein stability index (san1∆): 1.29 ± 0.15
protein stability index (ubr1∆): 1.76 ± 0.092

TPNLWAEQPLPVSPLDI [RPS2]
protein stability index (doa10∆): 1.41 ± 0.045
protein stability index (pdr5∆): 2.07 ± 0.06
protein stability index (san1∆): 2.31 ± 0.056
protein stability index (ubr1∆): 1.58 ± 0.066

TPNVREEKQKSYKFPRG [PUP1]
protein stability index (doa10∆): 3.29 ± 0.13
protein stability index (pdr5∆): 2.74 ± 0.12
protein stability index (san1∆): 3.13 ± 0.095

TPSTNEPYARVSGDLNP [FAS1]
protein stability index (doa10∆): 2.96 ± 0.074
protein stability index (pdr5∆): 2.6 ± 0.077
protein stability index (san1∆): 2.46 ± 0.15
protein stability index (ubr1∆): 2.39 ± 0.073

TQDDFTTSVDVMLKGIV [SRP54]
protein stability index (doa10∆): 1.63 ± 0.1
protein stability index (pdr5∆): 2.23 ± 0.081
protein stability index (san1∆): 1.67 ± 0.12
protein stability index (ubr1∆): 1.51 ± 0.047

TQIANAGASPMVNTQQP [PRE4]
protein stability index (doa10∆): 2.94 ± 0.11
protein stability index (pdr5∆): 3.07 ± 0.09
protein stability index (san1∆): 2.82 ± 0.075
protein stability index (ubr1∆): 2.82 ± 0.18

TQPKAEATQDDDFDMLF [NUT1]
protein stability index (doa10∆): 2.73 ± 0.069
protein stability index (pdr5∆): 3.15 ± 0.051
protein stability index (san1∆): 2.99 ± 0.053
protein stability index (ubr1∆): 3.14 ± 0.043

TQPKSSSSMDMQANTNA [SSN3]
protein stability index (doa10∆): 2.55 ± 0.06
protein stability index (pdr5∆): 2.43 ± 0.046
protein stability index (san1∆): 3.13 ± 0.041
protein stability index (ubr1∆): 2.45 ± 0.039

TQTESKKEENETISNVA [SNF2]
protein stability index (doa10∆): 3.07 ± 0.056
protein stability index (pdr5∆): 3.1 ± 0.048
protein stability index (san1∆): 2.98 ± 0.045
protein stability index (ubr1∆): 3.19 ± 0.038

TQVFNILLQHKEKLTVQ [POP1]
protein stability index (doa10∆): 3.1 ± 0.084
protein stability index (pdr5∆): 3.11 ± 0.066
protein stability index (san1∆): 3.13 ± 0.058
protein stability index (ubr1∆): 2.94 ± 0.036

TQVNILKENNAILQKSL [YIL149C/MLP2]
protein stability index (doa10∆): 2.44 ± 0.06
protein stability index (pdr5∆): 2.55 ± 0.062
protein stability index (san1∆): 2.63 ± 0.076
protein stability index (ubr1∆): 2.65 ± 0.059

TQVYKLGLAKSVHHARV [RPS9A]
protein stability index (doa10∆): 1.94 ± 0.089
protein stability index (pdr5∆): 1.48 ± 0.053
protein stability index (san1∆): 1.55 ± 0.14
protein stability index (ubr1∆): 1.24 ± 0.066

TRAGGLGINLVTADTVI [ISW2]
protein stability index (doa10∆): 2.19 ± 0.061
protein stability index (pdr5∆): 2.13 ± 0.054
protein stability index (san1∆): 2.12 ± 0.1
protein stability index (ubr1∆): 2.89 ± 0.096

TRIKLLLTKNVSCYRPR [RPS6A]
protein stability index (doa10∆): 2.11 ± 0.22
protein stability index (pdr5∆): 2.64 ± 0.14
protein stability index (san1∆): 2.88 ± 0.11
protein stability index (ubr1∆): 2.94 ± 0.17

TRLYDYEIRDIDQDIHG [SSN2]
protein stability index (doa10∆): 3.54 ± 0.11
protein stability index (pdr5∆): 3.55 ± 0.16
protein stability index (san1∆): 3.48 ± 0.094
protein stability index (ubr1∆): 3.49 ± 0.11

TRPLTLSHGSLEHVLLV [FAS1]
protein stability index (doa10∆): 2.39 ± 0.068
protein stability index (pdr5∆): 2.72 ± 0.076
protein stability index (san1∆): 2.67 ± 0.068
protein stability index (ubr1∆): 3.12 ± 0.065

TRPQMPSRTRETATSER [GRR1]
protein stability index (doa10∆): 2.85 ± 0.062
protein stability index (pdr5∆): 3.12 ± 0.06
protein stability index (san1∆): 3.03 ± 0.05
protein stability index (ubr1∆): 3.05 ± 0.036

TRRFVNVTLVNGKRRMN [RPS30A]
protein stability index (doa10∆): 1.67 ± 0.055
protein stability index (pdr5∆): 1.51 ± 0.038
protein stability index (san1∆): 1.73 ± 0.084
protein stability index (ubr1∆): 2.37 ± 0.038

TRSALKLVRESELLGGT [QCR2]
protein stability index (doa10∆): 2.51 ± 0.29
protein stability index (pdr5∆): 2.5 ± 0.24
protein stability index (san1∆): 2.21 ± 0.16

TRSWRPPQAGDRSLADD [RPB8]
protein stability index (doa10∆): 3.1 ± 0.11
protein stability index (pdr5∆): 3.09 ± 0.16
protein stability index (san1∆): 3.32 ± 0.13
protein stability index (ubr1∆): 3.21 ± 0.11

TRVRLPSGAKKVISSDA [RPL2A]
protein stability index (doa10∆): 3.25 ± 0.092
protein stability index (pdr5∆): 3.27 ± 0.084
protein stability index (san1∆): 3.26 ± 0.049
protein stability index (ubr1∆): 3.26 ± 0.072

TRVTRLSLQRANVEILA [CSL4]
protein stability index (doa10∆): 1.64 ± 0.042
protein stability index (pdr5∆): 1.78 ± 0.043
protein stability index (san1∆): 1.78 ± 0.081
protein stability index (ubr1∆): 2.03 ± 0.033

TSAIEVLVGSCAYTGTG [RPN1]
protein stability index (doa10∆): 3.06 ± 0.067
protein stability index (pdr5∆): 3.35 ± 0.062
protein stability index (san1∆): 3.29 ± 0.06
protein stability index (ubr1∆): 3.28 ± 0.093

TSDLLGSHLSETEFPPF [ECM29]
protein stability index (doa10∆): 2.94 ± 0.049
protein stability index (pdr5∆): 3.17 ± 0.062
protein stability index (san1∆): 3.17 ± 0.042
protein stability index (ubr1∆): 2.9 ± 0.058

TSHYQNYHPNASITPYK [RPN4]
protein stability index (doa10∆): 2.84 ± 0.081
protein stability index (pdr5∆): 3.11 ± 0.074
protein stability index (san1∆): 2.94 ± 0.055
protein stability index (ubr1∆): 2.89 ± 0.063

TSIARIGDYILKSPVLS [QCR7]
protein stability index (doa10∆): 1.5 ± 0.045
protein stability index (pdr5∆): 1.72 ± 0.045
protein stability index (san1∆): 1.49 ± 0.075
protein stability index (ubr1∆): 1.98 ± 0.033

TSKMNLSEDVNLETLVT [RPT2]
protein stability index (doa10∆): 2.6 ± 0.14
protein stability index (pdr5∆): 2.85 ± 0.16
protein stability index (san1∆): 2.62 ± 0.15
protein stability index (ubr1∆): 2.78 ± 0.11

TSKPVFSFGAATPSAKE [YLR335W/NUP2]
protein stability index (doa10∆): 2.95 ± 0.046
protein stability index (pdr5∆): 3.08 ± 0.053
protein stability index (san1∆): 3.08 ± 0.043
protein stability index (ubr1∆): 3.06 ± 0.041

TSKWLNSITSGGLKSCD [YDL116W/NUP84]
protein stability index (doa10∆): 2.94 ± 0.097
protein stability index (pdr5∆): 3.17 ± 0.089
protein stability index (san1∆): 3.42 ± 0.078
protein stability index (ubr1∆): 2.7 ± 0.052

TSLQGTYEAIEITDAYC [YMR129W/POM152]
protein stability index (doa10∆): 2.63 ± 0.053
protein stability index (pdr5∆): 2.86 ± 0.059
protein stability index (san1∆): 2.74 ± 0.049
protein stability index (ubr1∆): 2.52 ± 0.038

TSLVANENDKIYLLFQS [YDL116W/NUP84]
protein stability index (doa10∆): 2.37 ± 0.058
protein stability index (pdr5∆): 2.59 ± 0.05
protein stability index (san1∆): 2.42 ± 0.054
protein stability index (ubr1∆): 2.79 ± 0.035

TSMNGVHNTVAAGNASS [SNF5]
protein stability index (doa10∆): 2.73 ± 0.043
protein stability index (pdr5∆): 2.74 ± 0.037
protein stability index (san1∆): 2.76 ± 0.05
protein stability index (ubr1∆): 2.76 ± 0.051

TSPVTGATEKRKCAKPF [CSL4]
protein stability index (doa10∆): 1.89 ± 0.23
protein stability index (pdr5∆): 1.27 ± 0.15

TSSAPAQNQGMFGAKPA [YGL172W/NUP49]
protein stability index (doa10∆): 2.44 ± 0.11
protein stability index (pdr5∆): 2.75 ± 0.089
protein stability index (san1∆): 1.92 ± 0.14
protein stability index (ubr1∆): 2.79 ± 0.069

TSTKDKNSSTSNTEPIP [MED1]
protein stability index (doa10∆): 3.17 ± 0.058
protein stability index (pdr5∆): 3.27 ± 0.061
protein stability index (san1∆): 3.21 ± 0.046
protein stability index (ubr1∆): 3.16 ± 0.041

TSTPPPPPAPHNLHPQI [SNF5]
protein stability index (doa10∆): 3.2 ± 0.058
protein stability index (pdr5∆): 3.16 ± 0.048
protein stability index (san1∆): 3.08 ± 0.049
protein stability index (ubr1∆): 3.14 ± 0.039

TTAVDALQKGLKDLMDL [RPC19]
protein stability index (doa10∆): 3.58 ± 0.23
protein stability index (pdr5∆): 2.79 ± 0.26
protein stability index (san1∆): 2.9 ± 0.12
protein stability index (ubr1∆): 3.02 ± 0.13

TTIEEIFLHSLPVKEFQ [RPS2]
protein stability index (doa10∆): 2.82 ± 0.067
protein stability index (pdr5∆): 2.78 ± 0.069
protein stability index (san1∆): 3.01 ± 0.067
protein stability index (ubr1∆): 2.79 ± 0.073
